B1: LINE1-full (parent)
chain: UACGUAGGUGGUUUUCCCCUGAUAGUGCUAAGGGGGCCUGGAAGUUUGGACUGGGCAGAGCUCAACACAGCGUGGCAAAGUGGCUGUGGCUAGACUGCCUCUCUGGAUUCCUCGUCACUCAGCAGGGCAUCUCUGAGAGAAAUGCC

Variants of B1 are the subject of this data set. Kind of data set: self-cleavage, relative activity (ratio to wild type); higher = more cleavage; in vitro, sequencing; the parent is a self-cleaving ribozyme.
As to UACGUAGGUGGUUUUCCCCUGAUAGUGCUAAGGGGGCCUGGAAGUUUGGACUGGGCAGAGCUCAACACAGCGUGGCAAAGUGGGUGUGGCUAGACUGCCUCUCUGGAUUCCUCGUCACUCAGCAGGGCAUCUCUGAGAGGAAUGCC [C84G A140G], the self-cleavage amounted to 0.12. In the case of UACGUAGGUGGUUUUCCCCUGAUAGUGCUAAGGGGGCCUGGAAGUUUGGACUGGGCAGAGCUCAACACAGCGUGGCAAAGUGGAUGUGGCUAUACUGCCUCUCUGGAUUCCUCGUCACUCAGCAGGGCAUCUCUGAGAGAAAUGCC [C84A G93U], the self-cleavage stood at 0.05.

Consider UACGUAGGUGGUUUUCCCCUGAUAGUGCUAAGGGGGCCUGGAAGUUUGGACUGGGCAGAGCUCAACACAGCGUGGCAAAGUGGGUGUGGCUAGACAGCCUCUCUGGAUUCCUCGUCACUCAGCAGGGCAUCUCUGAGAGAAAUGCC [C84G U96A], for which the self-cleavage turned out to be 0.09. As to UACGUAGGUGGUUUUCCCCUGAUAGUGCUAAGGGGGCCUGGAAGUUUGGACUGGGCAGAGCUCAACACAGCGUGGCAAAGUGGGUGUGGCUAGACUGCCUCUCUGGAUUCCUCGUCACUCAGCAGGGCAUCCCUGAGAGAAAUGCC [C84G U132C], the self-cleavage amounted to 0.11. The value for UACGUAGGUGGUUUUCCCCUGAUAGUGCUAAGGGGGCCUGGAAGUUUGGACUGGGCAGAGCUCAACACAGCGUGGCAAAGUGGGUGUGGCUAGACUGCCUCUCCGGAUUCCUCGUCACUCAGCAGGGCAUCUCUGAGAGAAAUGCC [C84G U104C] was 0.11.

With UACGUAGGUGGUUUUCCCCUGAUAGUGCUAAGGGGGCCUGGAAGUUUGGACUGGGCAGAGCUCAACACAGCGUGGCAAAGUGGAUGUGGCUAGACUGCCUCUCUGGAUUCCCCGUCACUCAGCAGGGCAUCUCUGAGAGAAAUGCC [C84A U112C], the self-cleavage was found to be 0.16. With UACGUAGGUGGUUUUCCCCUGAUAGUGCUAAGGGGGCCUGGAAGUUUGGACUGGGCAGAGCUCAACACAGCGUGGCAAAGUGGCAGUGGCUAGGCUGCCUCUCUGGAUUCCUCGUCACUCAGCAGGGCAUCUCUGAGAGAAAUGCC [U85A A94G] the figure was 0.15; with UACGUAGGUGGUUUUCCCCUGAUAGUGCUAAGGGGGCCUGGAAGUUUGGACUGGGCAGAGCUCAACACAGCGUGGCAAAGUGGCAGUGGCUAGACUGCCUCUCUGGAUUCCUCGUCACUCAGCUGGGCAUCUCUGAGAGAAAUGCC [U85A A124U], 0.08; with UACGUAGGUGGUUUUCCCCUGAUAGUGCUAAGGGGGCCUGGAAGUUUGGACUGGGCAGAGCUCAACACAGCGUGGCAAAGUGGCAGUGGCUAGACUGCCUCUCUGGAUUCCUCGUCACUCAGCAGGGCAUCUCUGAGAGAAAUGCC [U85A], 0.09. UACGUAGGUGGUUUUCCCCUGAUAGUGCUAAGGGGGCCUGGAAGUUUGGACUGGGCAGAGCUCAACACAGCGUGGCAAAGUGGUUGUGGCUAGACUGCCUCUCUGGAUUCCUCGUCGCUCAGCAGGGCAUCUCUGAGAGAAAUGCC [C84U A117G]: the self-cleavage was 0.2. The value for UACGUAGGUGGUUUUCCCCUGAUAGUGCUAAGGGGGCCUGGAAGUUUGGACUGGGCAGAGCUCAACACAGCGUGGCAAAGUGGCAGUGGCUUGACUGCCUCUCUGGAUUCCUCGUCACUCAGCAGGGCAUCUCUGAGAGAAAUGCC [U85A A92U] was 0.11.

As to UACGUAGGUGGUUUUCCCCUGAUAGUGCUAAGGGGGCCUGGAAGUUUGGACUGGGCAGAGCUCAACACAGCGUGGCAAAGUGGCAGUGGCUGGACUGCCUCUCUGGAUUCCUCGUCACUCAGCAGGGCAUCUCUGAGAGAAAUGCC [U85A A92G], the self-cleavage came out at 0.13. The value for UACGUAGGUGGUUUUCCCCUGAUAGUGCUAAGGGGGCCUGGAAGUUUGGACUGGGCAGAGCUCAACACAGCGUGGCAAAGUGGUUGUGGCUAGACUGCCUCUCUGGAUUCCUCUUCACUCAGCAGGGCAUCUCUGAGAGAAAUGCC [C84U G114U] was 0.15; that for UACGUAGGUGGUUUUCCCCUGAUAGUGCUAAGGGGGCCUGGAAGUUUGGACUGGGCAGAGCUCAACACAGCGUGGCAAAGUGGUUGUGGCUAGACUGCCUCUCUGGAUUCCUCGUCACCCAGCAGGGCAUCUCUGAGAGAAAUGCC [C84U U119C] was 0.12; that for UACGUAGGUGGUUUUCCCCUGAUAGUGCUAAGGGGGCCUGGAAGUUUGGACUGGGCAGAGCUCAACACAGCGUGGCAAAGUGGAUGUGGCUAGACUGCCUCUCUGGAUUCCUCGUCACUCAGCAGGGCAACUCUGAGAGAAAUGCC [C84A U130A] was 0.07. On to UACGUAGGUGGUUUUCCCCUGAUAGUGCUAAGGGGGCCUGGAAGUUUGGACUGGGCAGAGCUCAACACAGCGUGGCAAAGUGGCAGUGGCUAGACUGCCUCUCUGGAUUCCUCGUCACUCAGCAGGGCGUCUCUGAGAGAAAUGCC [U85A A129G], for which the self-cleavage is 0.07.

As to UACGUAGGUGGUUUUCCCCUGAUAGUGCUAAGGGGGCCUGGAAGUUUGGACUGGGCAGAGCUCAACACAGCGUGGCAAAGUGUCUGUGGCUAGACUGCCUCUCUGGAUUCCUCGUCACUCAGCAGGGCAUCUCUGAGAGAAACGCC [G83U U143C], the self-cleavage came out at 1.01. The value for UACGUAGGUGGUUUUCCCCUGAUAGUGCUAAGGGGGCCUGGAAGUUUGGACUGGGCAGAGCUCAACACAGCGUGGCAAAGUGGAUGUGGCUAGACUGCCUCUCUGGAUUCCUCGUCACUCAGCAGGGCAUCUCUGAGAGGAAUGCC [C84A A140G] was 0.13; that for UACGUAGGUGGUUUUCCCCUGAUAGUGCUAAGGGGGCCUGGAAGUUUGGACUGGGCAGAGCUCAACACAGCGUGGCAAAGUGUCUGUGGCUAGACUGCCUCUCUGGAUUCCUCGUCACACAGCAGGGCAUCUCUGAGAGAAAUGCC [G83U U119A] was 0.65; that for UACGUAGGUGGUUUUCCCCUGAUAGUGCUAAGGGGGCCUGGAAGUUUGGACUGGGCAGAGCUCAACACAGCGUGGCAAAGUGGUUGUGGCUAGACUGGCUCUCUGGAUUCCUCGUCACUCAGCAGGGCAUCUCUGAGAGAAAUGCC [C84U C98G] was 0.08. The value for UACGUAGGUGGUUUUCCCCUGAUAGUGCUAAGGGGGCCUGGAAGUUUGGACUGGGCAGAGCUCAACACAGCGUGGCAAAGUGUCUGUGGCUAGACUGCCUCUCUGGACUCCUCGUCACUCAGCAGGGCAUCUCUGAGAGAAAUGCC [G83U U108C] was 1.07; that for UACGUAGGUGGUUUUCCCCUGAUAGUGCUAAGGGGGCCUGGAAGUUUGGACUGGGCAGAGCUCAACACAGCGUGGCAAAGUGGCAGUGGCUAGACUGCCUCUCUGGGUUCCUCGUCACUCAGCAGGGCAUCUCUGAGAGAAAUGCC [U85A A107G] was 0.08.

Take UACGUAGGUGGUUUUCCCCUGAUAGUGCUAAGGGGGCCUGGAAGUUUGGACUGGGCAGAGCUCAACACAGCGUGGCAAAGUGGUUGUGGCUAGACUGCCUCUCUGGACUCCUCGUCACUCAGCAGGGCAUCUCUGAGAGAAAUGCC [C84U U108C]: the self-cleavage worked out at 0.15.

Turning to UACGUAGGUGGUUUUCCCCUGAUAGUGCUAAGGGGGCCUGGAAGUUUGGACUGGGCAGAGCUCAACACAGCGUGGCAAAGUGGUUGUGGCUAGACUGCCUCCCUGGAUUCCUCGUCACUCAGCAGGGCAUCUCUGAGAGAAAUGCC [C84U U102C], the self-cleavage stood at 0.16. With UACGUAGGUGGUUUUCCCCUGAUAGUGCUAAGGGGGCCUGGAAGUUUGGACUGGGCAGAGCUCAACACAGCGUGGCAAAGUGGUUGUGGCUAGACUGCCUCUCUGGAUUCCUCGUCACUCUGCAGGGCAUCUCUGAGAGAAAUGCC [C84U A121U] the figure was 0.11; with UACGUAGGUGGUUUUCCCCUGAUAGUGCUAAGGGGGCCUGGAAGUUUGGACUGGGCAGAGCUCAACACAGCGUGGCAAAGUGGAUGUGGCUAGACUGCCUCUCUGGAUUCCUCGUCACUCAGCAGGGCAUCUCUGUGAGAAAUGCC [C84A A136U], 0.19; with UACGUAGGUGGUUUUCCCCUGAUAGUGCUAAGGGGGCCUGGAAGUUUGGACUGGGCAGAGCUCAACACAGCGUGGCAAAGUGGUUGUGGCUAGACUGCCUCUCUGGAUUCCUCGUCACUCAGCUGGGCAUCUCUGAGAGAAAUGCC [C84U A124U], 0.18. The value for UACGUAGGUGGUUUUCCCCUGAUAGUGCUAAGGGGGCCUGGAAGUUUGGACUGGGCAGAGCUCAACACAGCGUGGCAAAGUGGAUGUGGCUAGACUGCCUCUCUGGAUUCCUCGUCACUCAGCAGGGCAUCUCUGAGGGAAAUGCC [C84A A138G] was 0.05. On to UACGUAGGUGGUUUUCCCCUGAUAGUGCUAAGGGGGCCUGGAAGUUUGGACUGGGCAGAGCUCAACACAGCGUGGCAAAGUGGUUGUGGCUAGACCGCCUCUCUGGAUUCCUCGUCACUCAGCAGGGCAUCUCUGAGAGAAAUGCC [C84U U96C], for which the self-cleavage is 0.04. The value for UACGUAGGUGGUUUUCCCCUGAUAGUGCUAAGGGGGCCUGGAAGUUUGGACUGGGCAGAGCUCAACACAGCGUGGCAAAGUGGUUGUGGCUAGACUGCCUCUCUGGAUCCCUCGUCACUCAGCAGGGCAUCUCUGAGAGAAAUGCC [C84U U109C] was 0.1; that for UACGUAGGUGGUUUUCCCCUGAUAGUGCUAAGGGGGCCUGGAAGUUUGGACUGGGCAGAGCUCAACACAGCGUGGCAAAGUGGAUGUGGCUAGACUGCCUCUCUGGAUUCCUCGUCACUCAGCAGGGCAUAUCUGAGAGAAAUGCC [C84A C131A] was 0.18. With UACGUAGGUGGUUUUCCCCUGAUAGUGCUAAGGGGGCCUGGAAGUUUGGACUGGGCAGAGCUCAACACAGCGUGGCAAAGUGGUUGUGGCUAGACUGCCUCUCUGGAUUCCUCGUCACUCAGCAGGGCAUCUCUGAGAGGAAUGCC [C84U A140G] the figure was 0.07; with UACGUAGGUGGUUUUCCCCUGAUAGUGCUAAGGGGGCCUGGAAGUUUGGACUGGGCAGAGCUCAACACAGCGUGGCAAAGUGGUUGUGGCUAGACUGCCACUCUGGAUUCCUCGUCACUCAGCAGGGCAUCUCUGAGAGAAAUGCC [C84U U100A], 0.07. The value for UACGUAGGUGGUUUUCCCCUGAUAGUGCUAAGGGGGCCUGGAAGUUUGGACUGGGCAGAGCUCAACACAGCGUGGCAAAGUGGUUGUGGCUAGACUGCCUCUCUGGAUUCCUCGUCACUCAGCAGGGCAUCUCUGAGAGAGAUGCC [C84U A141G] was 0.14; that for UACGUAGGUGGUUUUCCCCUGAUAGUGCUAAGGGGGCCUGGAAGUUUGGACUGGGCAGAGCUCAACACAGCGUGGCAAAGUGGUUGUGGCUAGACUGCCUCUCUGGAUUCCUCGUCACUCAGCAGGGCAUCUCUGAGAGAAGUGCC [C84U A142G] was 0.12; that for UACGUAGGUGGUUUUCCCCUGAUAGUGCUAAGGGGGCCUGGAAGUUUGGACUGGGCAGAGCUCAACACAGCGUGGCAAAGUGGUCGUGGCUAGACUGCCUCUCUGGAUUCCUCGUCACUCAGCAGGGCAUCUCUGAGAGAAAUGCC [C84U U85C] was 0. For the variant UACGUAGGUGGUUUUCCCCUGAUAGUGCUAAGGGGGCCUGGAAGUUUGGACUGGGCAGAGCUCAACACAGCGUGGCAAAGUGGCAGUGGCUAGACUGCCUCUCUGGAUUCCUCGUCGCUCAGCAGGGCAUCUCUGAGAGAAAUGCC [U85A A117G], the self-cleavage was found to be 0.15. The value for UACGUAGGUGGUUUUCCCCUGAUAGUGCUAAGGGGGCCUGGAAGUUUGGACUGGGCAGAGCUCAACACAGCGUGGCAAAGUGGCAGUGGCUAGACUGCCUCUCUGGAUUCCUCGUCUCUCAGCAGGGCAUCUCUGAGAGAAAUGCC [U85A A117U] was 0.09. With UACGUAGGUGGUUUUCCCCUGAUAGUGCUAAGGGGGCCUGGAAGUUUGGACUGGGCAGAGCUCAACACAGCGUGGCAAAGUGGCAGUGGCUAGACUGCCUCUCUGGAUUCCUCGUCCCUCAGCAGGGCAUCUCUGAGAGAAAUGCC [U85A A117C] the figure was 0.07.

For the origin of these results see the RNAGym collection of RNA variant scans (doi:10.7554/elife.90254).
